Reference: EP4585616A1, “ANTIBODY CAPABLE OF SPECIFICALLY BINDING TO ROR1, […] THEREOF, AND PREPARATION METHOD THEREFOR AND USE THEREOF” (Hefei Institutes of Physical Science, Chinese Academy of …, priority 2022, dated 2024)

Assays:
[1] = target: T1, Extracellular domain of human ROR1 protein (ROR1-ECD) (human, UniProt Q01973 30-403); assay: ELISA, plate-coated ROR1-ECD
T1 construct: Expressed in HEK293T cells; also called human ROR1-ECD; purified human ROR1 protein extracellular segment

[2] = target: T2, human ROR1 on the surface of tumor cells (human, UniProt Q01973 30-937); assay: FACS, MDA-MB-231 cells
T2 construct: whole, on cells; also called ROR1 on the cell surface; tumor cell ROR1
T2 sequence (Q01973 30-937): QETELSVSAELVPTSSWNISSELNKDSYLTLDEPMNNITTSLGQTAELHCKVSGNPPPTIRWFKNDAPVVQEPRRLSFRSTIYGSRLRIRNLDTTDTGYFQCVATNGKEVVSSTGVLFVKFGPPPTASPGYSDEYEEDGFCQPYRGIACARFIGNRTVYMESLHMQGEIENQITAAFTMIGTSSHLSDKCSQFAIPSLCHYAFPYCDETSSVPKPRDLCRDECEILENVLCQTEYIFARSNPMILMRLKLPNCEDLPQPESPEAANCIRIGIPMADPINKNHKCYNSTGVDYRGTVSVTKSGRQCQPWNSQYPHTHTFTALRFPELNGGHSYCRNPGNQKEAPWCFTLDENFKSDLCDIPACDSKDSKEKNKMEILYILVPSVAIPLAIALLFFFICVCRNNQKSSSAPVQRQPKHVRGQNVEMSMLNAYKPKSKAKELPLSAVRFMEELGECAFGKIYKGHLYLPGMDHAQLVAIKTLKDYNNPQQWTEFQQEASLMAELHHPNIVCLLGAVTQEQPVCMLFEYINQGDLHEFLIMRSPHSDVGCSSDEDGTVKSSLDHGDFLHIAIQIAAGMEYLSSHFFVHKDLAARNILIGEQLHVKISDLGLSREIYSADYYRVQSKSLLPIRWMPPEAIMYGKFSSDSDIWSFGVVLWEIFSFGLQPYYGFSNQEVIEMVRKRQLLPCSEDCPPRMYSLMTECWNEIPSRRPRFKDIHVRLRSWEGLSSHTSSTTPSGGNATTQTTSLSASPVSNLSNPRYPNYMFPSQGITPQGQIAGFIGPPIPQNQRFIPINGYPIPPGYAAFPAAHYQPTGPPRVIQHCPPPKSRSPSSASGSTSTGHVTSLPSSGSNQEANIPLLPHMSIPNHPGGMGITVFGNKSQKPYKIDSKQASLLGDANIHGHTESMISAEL

T1 sequence (Q01973 other isoform, or with tags, fused parts or gaps): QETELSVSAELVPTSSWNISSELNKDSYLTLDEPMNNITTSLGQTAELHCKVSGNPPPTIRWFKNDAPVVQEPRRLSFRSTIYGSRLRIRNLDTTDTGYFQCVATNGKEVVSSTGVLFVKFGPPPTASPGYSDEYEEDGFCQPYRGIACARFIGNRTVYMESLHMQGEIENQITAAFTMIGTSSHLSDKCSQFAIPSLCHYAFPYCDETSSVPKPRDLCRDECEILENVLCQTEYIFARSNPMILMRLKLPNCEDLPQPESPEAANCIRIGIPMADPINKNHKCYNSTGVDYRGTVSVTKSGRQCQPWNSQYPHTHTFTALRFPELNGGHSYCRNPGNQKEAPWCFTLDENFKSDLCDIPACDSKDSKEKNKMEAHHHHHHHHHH

| binding result [1] | binding result [2] | Binder |
| --- | --- | --- |
| binds | binds | Hu005-46 (antibody, V domains shown, Humanized) VH: EVQLVESGGGLVKPGGSLRLSCAASGFTFNSYAMSWVRQTPGKRLEWVATISDAGSYTYYPDNEKGRFTISRDNAKNSLYLQMNSLRAEDTAIYYCVRGGYYYNLYAMDYWGQGTLVTVSS VL: DIVLTQSPDSLAVSLGERATINCKASQSVSFPGTSLMHWYQQKPGQQPKLLIYRASNLEAGVPDRFSGSGSRTDFTLTISSLQAEDVAVYYCQQSREYPWTFGGGTKVEIK |
| binds | binds | Hu005-41 (antibody, V domains shown, Humanized) VH: EVQLVESGGGLVKPGGSLRLSCAASGFTFNSYAMSWVRQTPGKRLEWVATISDAGSYTYYPDNEKGRFTISRDNAKNNLYLQMNSLRAEDTAIYYCVRGGYYYNLYAMDYWGQGTLVTVSS VL: DIVLTQSPDSLAVSLGERATINCKASQSVSFPGTSLMHWYQQKPGQQPKLLIYRASNLEAGVPDRFSGSGSRTDFTLTISSLQAEDVAVYYCQQSREYPWTFGGGTKVEIK |
| binds | binds | Hu005-44 (antibody, V domains shown, Humanized) VH: EVQLVESGGGLVKPGGSLRLSCAASGFTFNSYAMSWVRQTPGKGLEWVATISDAGSYTYYPDNEKGRFTISRDNAKNSLYLQMNSLRAEDTAIYYCVRGGYYYNLYAMDYWGQGTLVTVSS VL: DIVLTQSPDSLAVSLGERATINCKASQSVSFPGTSLMHWYQQKPGQQPKLLIYRASNLEAGVPDRFSGSGSRTDFTLTISSLQAEDVAVYYCQQSREYPWTFGGGTKVEIK |
| binds | binds | Hu005-42 (antibody, V domains shown, Humanized) VH: EVQLVESGGGLVKPGGSLRLSCAASGFTFNSYAMSWVRQTPEKRLEWVATISDAGSYTYYPDNEKGRFTISRDNAKNSLYLQMNSLRAEDTAIYYCVRGGYYYNLYAMDYWGQGTLVTVSS VL: DIVLTQSPDSLAVSLGERATINCKASQSVSFPGTSLMHWYQQKPGQQPKLLIYRASNLEAGVPDRFSGSGSRTDFTLTISSLQAEDVAVYYCQQSREYPWTFGGGTKVEIK |
| binds | binds | Hu005-35 (antibody, V domains shown, Humanized) VH: EVQLVESGGGLVKPGGSLRLSCAASGFTFNSYAMSWVRQTPEKRLEWVATISDAGSYTYYPDNEKGRFTISRDNAKNNLYLQMNSLRAEDTAIYYCVRGGYYYNLYAMDYWGQGTLVTVSS VL: DIVLTQSPDSLAVSLGERATINCKASQSVSFPGTSLMHWYQQKPGQQPKLLIYRASNLEAGVPDRFSGSGSRTDFTLTISSLQAEDVAVYYCQQSREYPWTFGGGTKVEIK |
| binds | binds | Hu005-44-MMAE (antibody, human IgG1, DAR about 4.12, V domains shown, vcMMAE on cysteines after TCEP reduction, positions not given, Antibody-drug conjugate of Hu005-44 (human IgG1, Kappa) with vcMMAE) VH: EVQLVESGGGLVKPGGSLRLSCAASGFTFNSYAMSWVRQTPGKGLEWVATISDAGSYTYYPDNEKGRFTISRDNAKNSLYLQMNSLRAEDTAIYYCVRGGYYYNLYAMDYWGQGTLVTVSS VL: DIVLTQSPDSLAVSLGERATINCKASQSVSFPGTSLMHWYQQKPGQQPKLLIYRASNLEAGVPDRFSGSGSRTDFTLTISSLQAEDVAVYYCQQSREYPWTFGGGTKVEIK |
| binds | binds | Hu005-40 (antibody, V domains shown, Humanized) VH: EVQLVESGGGLVKPGGSLRLSCAASGFTFNSYAMSWVRQTPEKGLEWVATISDAGSYTYYPDNEKGRFTISRDNAKNNLYLQMNSLRAEDTAIYYCVRGGYYYNLYAMDYWGQGTLVTVSS VL: DIVLTQSPDSLAVSLGERATINCKASQSVSFPGTSLMHWYQQKPGQQPKLLIYRASNLEAGVPDRFSGSGSRTDFTLTISSLQAEDVAVYYCQQSREYPWTFGGGTKVEIK |
| binds | binds | Hu005-43 (antibody, V domains shown, Humanized) VH: EVQLVESGGGLVKPGGSLRLSCAASGFTFNSYAMSWVRQTPGKGLEWVATISDAGSYTYYPDNEKGRFTISRDNAKNNLYLQMNSLRAEDTAIYYCVRGGYYYNLYAMDYWGQGTLVTVSS VL: DIVLTQSPDSLAVSLGERATINCKASQSVSFPGTSLMHWYQQKPGQQPKLLIYRASNLEAGVPDRFSGSGSRTDFTLTISSLQAEDVAVYYCQQSREYPWTFGGGTKVEIK |
| binds | binds | Hu001-05 (antibody, V domains shown, Humanized; also called Hu001-5) VH: QVQLVQSGAEVKKPGASVKVSCKASGYTFTDYNLHWVRQAPGQGLEWMGYINPNHDATSYNQKFQGKVTMTVDTSTSTVYMELSSLRSEDTAVYYCARRVRTGTGLDDWGQGTTVTVSS VL: DVVMTQSPLSLPVTLGQPASISCRSSHNIVHTNANTYLEWYQQRPGQSPRLLIYKVSNRFSGVPDRFSGSGSGTDFTLKISRVEAEDVGVYYCFQGSRFPYTFGGGTKVEIK |
| binds | binds | Hu001-06 (antibody, V domains shown, Humanized; also called Hu001-6) VH: QVQLVQSGAEVKKPGASVKVSCKASGYTFTDYNLHWVRQAPGQGLEWMGYINPNHDATSYNQKFQGKVTMTVDTSTSTVYMELSSLRSEDTAVYYCARRVRTGTGLDDWGQGTTVTVSS VL: DVVMTQSPLSLPVTLGQPASISCRSSHNIVHTNANTYLEWYQQRPGQSPKLLIYKVSNRFSGVPDRFSGSGSGTDFTLKISRVEAEDVGVYYCFQGSRFPYTFGGGTKVEIK |
| binds | binds | Hu001-14 (antibody, V domains shown, Humanized) VH: QVQLVQSGAEVKKPGASVKVSCKASGYTFTDYNLHWVKQAPGQGLEWIGYINPNHDATSYNQKFQGKATLTVDTSTSTAYMELSSLTSEDTAVYYCARRVRTGTGLDDWGQGTTVTVSS VL: DVVMTQSPLSLPVTLGQPASISCRSSHNIVHTNANTYLEWYQQRPGQSPRLLIYKVSNRFSGVPDRFSGSGSGTDFTLKISRVEAEDVGVYYCFQGSRFPYTFGGGTKVEIK |
| binds | binds | Hu001-15 (antibody, V domains shown, Humanized) VH: QVQLVQSGAEVKKPGASVKVSCKASGYTFTDYNLHWVKQAPGQGLEWIGYINPNHDATSYNQKFQGKATLTVDTSTSTAYMELSSLTSEDTAVYYCARRVRTGTGLDDWGQGTTVTVSS VL: DVVMTQSPLSLPVTLGQPASISCRSSHNIVHTNANTYLEWYQQRPGQSPKLLIYKVSNRFSGVPDRFSGSGSGTDFTLKISRVEAEDVGVYYCFQGSRFPYTFGGGTKVEIK |
| binds | binds | Hu001-08 (antibody, V domains shown, Humanized; also called Hu001-8) VH: QVQLVQSGAEVKKPGASVKVSCKASGYTFTDYNLHWVKQAPGQGLEWIGYINPNHDATSYNQKFQGKVTMTVDTSTSTVYMELSSLRSEDTAVYYCARRVRTGTGLDDWGQGTTVTVSS VL: DVVMTQSPLSLPVTLGQPASISCRSSHNIVHTNANTYLEWYQQRPGQSPRLLIYKVSNRFSGVPDRFSGSGSGTDFTLKISRVEAEDVGVYYCFQGSRFPYTFGGGTKVEIK |
| binds | binds | Hu001-11 (antibody, V domains shown, Humanized) VH: QVQLVQSGAEVKKPGASVKVSCKASGYTFTDYNLHWVKQAPGQGLEWIGYINPNHDATSYNQKFQGKATLTVDTSTSTVYMELSSLRSEDTAVYYCARRVRTGTGLDDWGQGTTVTVSS VL: DVVMTQSPLSLPVTLGQPASISCRSSHNIVHTNANTYLEWYQQRPGQSPRLLIYKVSNRFSGVPDRFSGSGSGTDFTLKISRVEAEDVGVYYCFQGSRFPYTFGGGTKVEIK |
| binds | binds | Hu001-2-MMAE (antibody, human IgG1, DAR about 4.15, V domains shown, vcMMAE on cysteines after TCEP reduction, positions not given, Antibody-drug conjugate of Hu001-2 (human IgG1, Kappa) with vcMMAE) VH: QVQLVQSGAEVKKPGASVKVSCKASGYTFTDYNLHWVRQAPGQGLEWMGYINPNHDATSYNQKFQGRVTMTRDTSTSTVYMELSSLRSEDTAVYYCARRVRTGTGLDDWGQGTTVTVSS VL: DVVMTQSPLSLPVTLGQPASISCRSSHNIVHTNANTYLEWYQQRPGQSPRLLIYKVSNRFSGVPDRFSGSGSGTDFTLKISRVEAEDVGVYYCFQGSRFPYTFGGGTKVEIK |
| binds | binds | Hu001-03 (antibody, V domains shown, Humanized; also called Hu001-3) VH: QVQLVQSGAEVKKPGASVKVSCKASGYTFTDYNLHWVRQAPGQGLEWMGYINPNHDATSYNQKFQGRVTMTRDTSTSTVYMELSSLRSEDTAVYYCARRVRTGTGLDDWGQGTTVTVSS VL: DVVMTQSPLSLPVTLGQPASISCRSSHNIVHTNANTYLEWYQQRPGQSPKLLIYKVSNRFSGVPDRFSGSGSGTDFTLKISRVEAEDVGVYYCFQGSRFPYTFGGGTKVEIK |
| binds | binds | Hu001-12 (antibody, V domains shown, Humanized) VH: QVQLVQSGAEVKKPGASVKVSCKASGYTFTDYNLHWVKQAPGQGLEWIGYINPNHDATSYNQKFQGKATLTVDTSTSTVYMELSSLRSEDTAVYYCARRVRTGTGLDDWGQGTTVTVSS VL: DVVMTQSPLSLPVTLGQPASISCRSSHNIVHTNANTYLEWYQQRPGQSPKLLIYKVSNRFSGVPDRFSGSGSGTDFTLKISRVEAEDVGVYYCFQGSRFPYTFGGGTKVEIK |
| binds | binds | Hu001-3-MMAE (antibody, human IgG1, DAR about 4.15, V domains shown, vcMMAE on cysteines after TCEP reduction, positions not given, Antibody-drug conjugate of Hu001-3 (human IgG1, Kappa) with vcMMAE) VH: QVQLVQSGAEVKKPGASVKVSCKASGYTFTDYNLHWVRQAPGQGLEWMGYINPNHDATSYNQKFQGRVTMTRDTSTSTVYMELSSLRSEDTAVYYCARRVRTGTGLDDWGQGTTVTVSS VL: DVVMTQSPLSLPVTLGQPASISCRSSHNIVHTNANTYLEWYQQRPGQSPKLLIYKVSNRFSGVPDRFSGSGSGTDFTLKISRVEAEDVGVYYCFQGSRFPYTFGGGTKVEIK |
| binds | binds | Hu001-02 (antibody, V domains shown, Humanized; also called Hu001-2) VH: QVQLVQSGAEVKKPGASVKVSCKASGYTFTDYNLHWVRQAPGQGLEWMGYINPNHDATSYNQKFQGRVTMTRDTSTSTVYMELSSLRSEDTAVYYCARRVRTGTGLDDWGQGTTVTVSS VL: DVVMTQSPLSLPVTLGQPASISCRSSHNIVHTNANTYLEWYQQRPGQSPRLLIYKVSNRFSGVPDRFSGSGSGTDFTLKISRVEAEDVGVYYCFQGSRFPYTFGGGTKVEIK |
